The text below walks through data of US20250368754A1 (KANAPH THERAPEUTICS, published 2025).

Bounds are passed on as bounds.

In experiment [1] the target is T1, human FAP on HEK293-hFAP cells (human, UniProt Q12884 1-760).
T1 construct: whole, on cells; also called human FAP-expressing cell line
T1 sequence (looked up): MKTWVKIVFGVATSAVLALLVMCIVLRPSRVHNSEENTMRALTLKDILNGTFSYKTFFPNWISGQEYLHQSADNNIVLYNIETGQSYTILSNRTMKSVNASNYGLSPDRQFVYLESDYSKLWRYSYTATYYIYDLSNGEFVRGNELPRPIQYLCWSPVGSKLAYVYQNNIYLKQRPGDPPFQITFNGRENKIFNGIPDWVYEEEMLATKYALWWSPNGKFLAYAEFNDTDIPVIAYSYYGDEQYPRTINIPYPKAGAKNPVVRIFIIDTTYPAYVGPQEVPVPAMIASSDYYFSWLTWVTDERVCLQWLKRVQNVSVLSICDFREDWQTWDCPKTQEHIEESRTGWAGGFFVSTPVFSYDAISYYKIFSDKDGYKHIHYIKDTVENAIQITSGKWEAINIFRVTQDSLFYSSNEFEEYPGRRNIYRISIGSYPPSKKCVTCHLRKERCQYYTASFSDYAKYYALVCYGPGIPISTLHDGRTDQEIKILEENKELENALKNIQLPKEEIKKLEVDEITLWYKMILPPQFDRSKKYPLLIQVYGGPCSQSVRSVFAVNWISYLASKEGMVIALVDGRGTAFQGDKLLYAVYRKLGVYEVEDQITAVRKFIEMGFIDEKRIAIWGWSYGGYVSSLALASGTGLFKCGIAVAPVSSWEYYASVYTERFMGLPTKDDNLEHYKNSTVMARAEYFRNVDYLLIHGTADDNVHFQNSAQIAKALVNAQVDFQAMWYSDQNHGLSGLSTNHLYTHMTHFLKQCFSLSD
Briefly: flow cytometry on HEK293-hFAP cells, 1 µg protein, anti-human IgG detection. In a few lines: (§1)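 HEK293-hFAP cells, 1×10⁵ per 100 μL FACS buffer, incubated with 1 μg antibody, washed twice, then stained with anti-human IgG. Negative control received secondary antibody only. Stained-cell ratio measured by flow cytometry.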
For orientation: Flow cytometry measures light scatter and fluorescence of single cells or particles in a stream.

A further experiment deals with T2, recombinant human FAP (human, UniProt Q12884 26-760).
T2 construct: also called rhFAP
T2 sequence (looked up): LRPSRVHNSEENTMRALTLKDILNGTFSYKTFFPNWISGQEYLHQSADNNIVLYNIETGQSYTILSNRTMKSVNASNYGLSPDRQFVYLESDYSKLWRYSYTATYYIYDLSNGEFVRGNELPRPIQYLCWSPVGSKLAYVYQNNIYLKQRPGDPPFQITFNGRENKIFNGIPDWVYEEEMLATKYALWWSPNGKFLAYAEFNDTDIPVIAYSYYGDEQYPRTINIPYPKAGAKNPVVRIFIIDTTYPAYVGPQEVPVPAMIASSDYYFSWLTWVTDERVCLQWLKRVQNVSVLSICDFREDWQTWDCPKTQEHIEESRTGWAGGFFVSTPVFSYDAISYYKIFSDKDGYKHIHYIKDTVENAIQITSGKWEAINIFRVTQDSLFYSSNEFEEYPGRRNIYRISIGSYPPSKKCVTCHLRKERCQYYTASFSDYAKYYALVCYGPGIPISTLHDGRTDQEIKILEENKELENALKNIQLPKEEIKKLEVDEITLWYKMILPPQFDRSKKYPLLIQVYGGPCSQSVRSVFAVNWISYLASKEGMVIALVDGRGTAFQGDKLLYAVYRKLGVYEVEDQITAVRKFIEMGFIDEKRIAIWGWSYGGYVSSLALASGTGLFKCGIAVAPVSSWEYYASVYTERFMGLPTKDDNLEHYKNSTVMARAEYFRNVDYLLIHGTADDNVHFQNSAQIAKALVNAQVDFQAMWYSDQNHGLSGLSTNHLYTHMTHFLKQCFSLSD
Briefly: SPR, fusion protein captured by anti-human IgG (Fc) on CM5, recombinant human FAP as analyte, 1:1 binding model. As to the method: Specifically, the surface of the CM5 chip was activated with a 1:1 mixture of […] NHS (N-hydroxysuccinimide) and 200 nM EDC (1-ethyl-3-(3-dimethylaminopropyl)carbodiimide), and 20 μg/mL of anti-human IgG (Fc) antibody was immobilized for 400 seconds at a rate of 10 μL/min. The remaining active ester groups were blocked with 1 M ethanolamine. T3.01, T3.07, and T3.14 were diluted to 2 μg/mL, 1 μg/mL, and 2 μg/mL, respectively, and reacted on the CM5 chip immobilized with the anti-human IgG (Fc) antibody. The recombinant human FAP was diluted to 50 nM or 100 nM in 1×HBS-EP+buffer solution and diluted by serial dilution. The diluted recombinant human FAP was reacted at a rate of 30 μL/min. The association and dissociation times were 180 seconds and 400 seconds, respectively. After the dissociation step, stabilization was performed for 60 seconds, and then the regeneration step was performed for 30 seconds with a 10 mM glycine pH 1.5 solution at a rate of 30 μL/min.
On the technique in general: SPR reads the build-up and loss of mass on a sensor chip optically.

Experiment [2] addresses T3, recombinant human lymphotoxin beta receptor (LTβR) (human, UniProt P36941 28-227, limits assumed).
T3 construct: neither construct is described; also called human LTβR; recombinant human LTβR protein
Kind of experiment: SPR, human LTβR immobilised on CM5, fusion protein as analyte, 1:1 binding model. As for the experimental part: Specifically, the surface of the CM5 chip was activated with a 1:1 mixture of […], and 5 μg/mL of human LTβR was immobilized for 60 seconds at a rate of 10 μL/min. The remaining active ester groups were blocked with 1 M ethanolamine. […] The diluted fusion proteins were reacted at a rate of 30 μL/min. The association and dissociation times were 180 seconds and 400 seconds, respectively. After the dissociation step, stabilization was performed for 60 seconds, and then the regeneration step was performed for 30 seconds with a 10 mM glycine pH 1.5 solution at a rate of 30 μL/min.

In experiment [3] the target is T1, human FAP on HEK293-hFAP cells. Briefly: flow cytometry on HEK293-hFAP cells, 1 ug protein per 1x10^5 cells, anti-human IgG detection (axis TMEkine-PE). In a few lines:
as §1

T3 sequence (P36941 28-227 limits assumed): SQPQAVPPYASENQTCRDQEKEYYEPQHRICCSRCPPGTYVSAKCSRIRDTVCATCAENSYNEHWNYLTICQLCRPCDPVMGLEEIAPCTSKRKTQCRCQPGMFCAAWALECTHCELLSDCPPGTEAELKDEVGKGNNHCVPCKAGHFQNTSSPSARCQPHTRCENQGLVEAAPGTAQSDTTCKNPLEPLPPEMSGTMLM

B1: T3.01 (anti-hu FAP/hu scLIGHT3, hu IgG1 DANG) (bispecific antibody)
heavy: QVQLVQSGAEVKKPGASVKVSCKTSRYTFTEYTIHWVRQAPGQRLEWIGGINPNNGIPNYNQKFKGRVTITVDTSASTAYMELSSLRSEDTAVYYCARRRIAYGYDEGHAMDYWGQGTLVTVSSASTKGPSVFPLAPSSKSTSGGTAALGCLVKDYFPEPVTVSWNSGALTSGVHTFPAVLQSSGLYSLSSVVTVPSSSLGTQTYICNVNHKPSNTKVDKKVEPKSCDKTHTCPPCPAPELLGGPSVFLFPPKPKDTLMISRTPEVTCVVVAVSHEDPEVKFNWYVDGVEVHNAKTKPREEQYGSTYRVVSVLTVLHQDWLNGKEYKCKVSNKALPAPIEKTISKAKGQPREPQVYTLPPSRDELTKNQVSLWCLVKGFYPSDIAVEWESNGQPENNYKTTPPVLDSDGSFFLYSKLTVDKSRWQQGNVFSCSVMHEALHNHYTQKSLSLSPGK
light: not shown
chain: not shown
notes: Knob-into-hole heterodimer: one anti-FAP Fab arm and one single-chain human LIGHT (91-240) homotrimer arm
One may read the Kd as the concentration at which binding is half-saturated. One may read the koff as a measure of how fast the partners let go of each other. The kon is a measure of how fast the partners come together. B1: the “percent of cells bound” value in experiment [1] was not below 99%. Also, in the experiment with recombinant human FAP, the Kd came out at 36.4 pM, the off-rate (koff) is 3.89e-06 s⁻¹ and the on-rate constant (kon) was 107000 M⁻¹ s⁻¹. In experiment [2], the Kd was 928 pM, the koff was 0.000321 s⁻¹ and the on-rate (kon) was found to be 346000 M⁻¹ s⁻¹. In addition, the “percent of cells in the positive gate” value in experiment [3] was 99.5%.

B2: T3.14 (anti-hu FAP/hu scLIGHT-LTb2, hu IgG1 DANG) (bispecific antibody)
heavy: B1 heavy
light: not shown
chain: not shown
notes: Knob-into-hole; single-chain heterotrimer of one human LIGHT and two human lymphotoxin beta (87-243)
Consider B2, for which the “percent of cells bound” value in experiment [1] was not below 99%. Further, in the experiment with recombinant human FAP, the Kd is 12.3 pM, the off-rate constant (koff) was found to be 1.53e-06 s⁻¹ and the on-rate constant (kon) stood at 124000 M⁻¹ s⁻¹. Moreover, in experiment [2], the Kd stood at 290 pM, the off-rate (koff) worked out at 0.000434 s⁻¹ and the kon came out at 1.5e+06 M⁻¹ s⁻¹. Also, in experiment [3], the “percent of cells in the positive gate” value is 99.9%.
